According to PMC5895741, “Quantitative characterization of all single amino acid variants of a viral capsid-based drug delivery vehicle” (Nature Communications, 2018):

Biological target: the molecule itself
Test: SEC; in vitro acid screen of purified VLPs; HPLC SEC peak height relative to pH 7.3 (normalized acid tolerance, n = 3)

B1: MS2 bacteriophage coat protein CP[T71H/E76C] (natural protein)
chain: ASNFTQFVLVDNGGTGDVTVAPSNFANGVAEWISSNSRSQAYKVTCSVRQSSAQNRKYTIKVEVPKVATQHVGGVCLPVAAWRSYLNMELTIPIFATNSDCELIVKAMQGLLKDGNPIPSAIAANSGIY
notes: MS2 bacteriophage coat protein (MS2 CP); also called CP[T71/E76C]; double mutant
Q: Does B1 bind?
A: Result: binds
